Source: the supplement of paper PMC12042874
± gives the uncertainty stated by the source.

assay: amyloid nucleation score (Sup35N fusion, yeast selection) (log enrichment); library NNK3; higher = more nucleation; inactive = no reads after selection
In short: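 Yeast lacking psi expressed peptides of 20 random codons fused to Sup35N, received 100 μM copper sulfate for 24 hours, and were then grown for 7 days at 30°C on medium lacking adenine and uracil. Illumina sequencing of input and output plasmid inserts provided the reads. Nucleation scores are DiMSum log enrichments of output over input, centred on the mode of non-aggregating sequences. Any sequence with under 100 input reads was excluded.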

Substance | amyloid nucleation score
LSFHP | inactive
QMVIHTVLGLKSLCVMFPSR | 1.04 ± 0.088
RCSYLMRLYISSFMY | inactive
INRVHLYRLLKW | inactive
LFEDKCGNPWRNY | -0.126 ± 0.88
DDYLPMISPFRCYSQFKYIS | inactive
FGQLGVVNGFTELWQRLCSW | inactive
RWCFCWICHYLDVLCHYCLH | inactive
SAYVLDGYMEISQILVIWSL | inactive
VWQWKGRCHVTNRYWYFCSS | inactive
TSIIYMFNSFL | 2.9 ± 0.06
VVMHAYCWLWNYSDFSIMGS | 1.57 ± 0.094
TSEVVQ | inactive
KIHRAGDYWVMSNR | inactive
GWMSATVLFQLSE | inactive
GHISGTESCNI | inactive
NGSIILICLVYVGLRCLWFL | inactive
YRWGRVYPSAFSLCKLRYKL | inactive
NSFVASEFKRLYRQWSRVHE | inactive
SGIMSHVGGTELLNSLHLMF | inactive
RYTFGTAIERVLQVILNEMT | inactive
RAFFDC | -0.47 ± 0.66
MSNRHWM | inactive

Substance | amyloid nucleation score
NPECVGDAWTVVVDYTSLWE | inactive
FMDKLIESFTYCWCTFGYAH | inactive
DVPVKNSYDFMYDCWAMPCS | inactive
KQGVILTNRVYAFALGSSTH | inactive
LVFASSVSSSDLTLCVGSCM | -0.594 ± 2.4
TLLHLLKLSGLVSKCSTMVL | inactive
QEGWCWSYLVAGGWV | inactive
DVCLGWAQTAFRCLMRG | inactive
RSMHLTWYW | 1.4 ± 0.11
HGTIVIDYRHSPW | 1.07 ± 0.1
GPSPDPNRLP | -0.754 ± 1.3
TLNSDVSGSNIWASSYG | inactive
STYGRMAR | inactive
IDRFHYSLTTDT | inactive
DYYGLK | inactive
SVTFDAWYCWMN | inactive
TWQVFSASVTVSLSYTSK | inactive
SFNLNCDDQSRNYRADVSDS | 1.16 ± 0.099
LSDYEDIAISFIKYRCSSLN | 1.42 ± 0.11
GDSLMMYQQDWISEVLICLA | inactive
DMFNLNLFGLLNCLGVMEET | 1.31 ± 0.072
GLVSGGVFMMADMSRILKGK | inactive
VVGFDSCGRWEVNVSYDSGT | inactive

Substance | amyloid nucleation score
YEMMCQYVYECWYIIDARRM | 0.06 ± 0.23
KGYGCFTGMYSENARMMVIS | 0.136 ± 0.66
SDTSSCCYTCVYISYVDHFF | 2.41 ± 0.052
YDGCDS | inactive
HVDPCWQKTFTMMLFWVFLR | inactive
TCWRGELMELTDMLSVALLR | inactive
QRLIRMSFSMAHMTSNFVMV | inactive
FGHYRYEFCELSGHGMGVDA | inactive
SFNVSRWPRKWISLNCLKIS | inactive
YFLGECNPRCYLLRGLAAWN | inactive
WVCTVVLVKDLPPRRSVLVG | inactive
RLGFDITKITWCGIYFAGWV | inactive
PCSYLCSRVFIIC | inactive
GIVDQFRTVSNNVLNQYEIW | inactive
RMTMFRTEAAVVKRSVSTVV | inactive
FMKSMVLYPDTVLFYFCLLH | inactive
ACLFCLGDWEGFVSD | inactive
HRDETGVHAVALSKSVWYKW | -1.07 ± 1.1
KVCVIVVLLHTTRCQKFYQY | inactive
FYSMSLVSFCFYGDLYLDNG | 2.76 ± 0.077
WRDFLYLRHGFQYGIRPMSE | inactive
KPVYYQCLENISSFEC | inactive
TNFPLALSSRIPSASQISMQ | -0.547 ± 1.5

Substance | amyloid nucleation score
FEKGSFLDRTESSHIGGLMH | inactive
PRYAVALSLD | inactive
PDVDLTTMLNNNMNYMYVKI | inactive
PGYGS | inactive
ALSYLSVLRSMLSRVVLCYL | inactive
IELVFAHVYCGMRWNSEASR | 1.4 ± 0.084
LPYQIIWRCCAMVNFDFLVL | inactive
HHYCRGSICESVSQMYWISW | inactive
SLNRWLSKYYLHTA | inactive
SDVIGLLFGEYNISVVLRGR | inactive
FMINSNNRFGISRRTLMSLT | inactive
ICKNYSVLVLRFGGSEGPTV | 1.52 ± 0.1
RFKYPPTFKMNSSSFFQSLL | inactive
SFPKYRSNEDFPMDIRCNSS | inactive
RARALLAHLKVPSKPVFTAV | inactive
TAYMNQIVNRELYP | inactive
LHASMLLLRNNRSRS | inactive
LVMLMYVVPGFVGGDFTGDF | inactive
LRNIMGECDSAWKDVMVGVA | inactive
VRYRVIHMDTFVS | 0.933 ± 0.16
YLPRSW | inactive
PPLPRFSLSFGRWLFLICHE | inactive
KFSYNVQLRVAWYVSGGSGT | inactive

Substance | amyloid nucleation score
MFDIVNKTSELL | inactive
LSLFPMGCIYKHRIGLVTAK | inactive
YFDCNFVW | 0.997 ± 0.14
CVSIGVVMCFCKSRFAITFV | inactive
AYRYTHVCDMVLKWAVCCFY | inactive
SMVGVFQKVFKTITTTYADV | inactive
AESEVDKCLDRGYGAEKTCT | inactive
WSIMSLNFRVDTHYSVHRYV | 1.95 ± 0.099
FLFSW | -0.483 ± 1.9
DTSTSMFRRVMEATVSTSLL | inactive
VTRPVVSQ | inactive
IADCVLIN | inactive
RGMISVMPSVIGPAL | inactive
TLCNFKCVYTGSLKIFHRYM | 1.91 ± 0.094
LGKSKFMAGQFLFCYSSVVL | 1.58 ± 0.12
NSVRLCRCEVIGQTIRDHGF | inactive
FIEVEVWRESSR | inactive
LSMHVVFVYIGFPHMDFDGS | inactive
DRISGFVIKYNFNLSFSEMW | 0.52 ± 0.17
RFSMNASYFYYVIMFSDCYS | inactive
WMVNVTGWISHGRFGYNFLI | inactive
SSISVRENYFMASRVMMVGC | 0.234 ± 0.56
FRSTGRKQELLLHSRKKQLP | inactive

Substance | amyloid nucleation score
KTYEETSDTYYFQVLFTNPI | inactive
AGAVYVTAPLIAREDVVACY | inactive
PIIHGCDDLRDFFIARICIS | inactive
VVSFNPIKCIVCGV | inactive
SKVRMVGVSKKCGLTVISVQ | inactive
LLLVSLELTRLNSHEWVYVI | inactive
YLLSIEYVNLAIVDNSWRMF | 1.04 ± 0.094
LRSWNMLPRWVGRYWIFGGK | inactive
LCISKKVMNFSNASHGGQQC | inactive
IWLRVITLERLEPQM | inactive
HNNLLSCYLMAPVFHSMMSE | inactive
FKYLRCNNIIVCPVVMVHLT | 0.345 ± 0.22
GDQFQAMHVWNLPDVDYYVH | inactive
QLLSLKWYYVTRILCARYAD | inactive
RMVPKMSVCS | inactive
LHNCPVDGWAAVSRSVVGRE | inactive
FSRGVCTSYLSVRYGLCSTE | inactive
MKSKKPNSLDENYGSMRHF | inactive
NLTYNTSYAVVDVLRITCNF | 2.56 ± 0.065
DCGKWNLWSQPLGTG | inactive
DTSVYFQSSTCCAKKSGHKP | inactive
NWLMSTTFRAYGV | inactive
YTLRCDFLRNTA | inactive

Substance | amyloid nucleation score
FWSPGYTIVTVTLNGLVPW | inactive
PEGVSGIAE | inactive
VPDRCLD | inactive
SREWSKSVVCTYLTMRGRLS | inactive
RYNWVYDFVLNRSSYWCW | inactive
VCYLFWDVWVFLGEVTANT | inactive
FISSRLFTALLSRCNFHNRF | inactive
TNNCCNLLCMIQNPESCSFA | 3.12 ± 0.065
FLTFHGC | inactive
FYSNPNIVGFLMLLVYILEP | inactive
AVCCCGRNIHMRSCRPGTTL | 0.531 ± 0.16
DFRRTGLCIREWSSWRIMKL | inactive
HHLKGQ | inactive
VLLDMFRNFVWNSRVVFNGS | inactive
IVVFYAFEVFVGEGGKTRVP | inactive
RTLYMLRIALGHGPVTLEI | inactive
CVRYSRSGWVCDTGRLKDPC | inactive
KWDSKFRYLADGHNQLPC | 0.605 ± 0.38
VSGYNW | inactive
